B1: GFP-Sgo1 (472-530) [S. cerevisiae] / Ycg1 (6–932, Δ499–555)-Brn1 (384–529) [S. cerevisiae] (parent complex)
chain 1: KNEKKLTSNNSPKKSSPLLDITNKSENKKKSTRTKKLFKNAIVNNLSDENSTTRPSKSS
chain 2: GIDINTKIFNSVAEVFQKAQGSYAGHRKHIAVLKKIQSKAVEQGYEDAFNFWFDKLVTKILPLKKNEIIGDRIVKLVAAFIASLERELILAKKQNYKLTNDEEGIFSRFVDQFIRHVLRGVESPDKNVRFRVLQLLAVIMDNIGEIDESLFNLLILSLNKRIYDREPTVRIQAVFCLTKFQDEEQTEHLTELSDNEENFEATRTLVASIQNDPSAEVRRAAMLNLINDNNTRPYILERARDVNIVNRRLVYSRILKSMGRKCFDDIEPHIFDQLIEWGLEDRELSVRNACKRLIAHDWLNALDGDLIELLEKLDVSRSSVCVKAIEALFQSRPDILSKIKFPESIWKDFTVEIAFLFRAIYLYCLDNNITEMLEENFPEASKLSEHLNHYILLRYHHNDISNDSQSHFDYNTLEFIIEQLSIAAERYDYSDEVGRRSMLTVVRNMLALTTLSEPLIKIGIRVMKSLSINEKDFVTMAIEIINDIRDDDIEKQESESDIINNLPPEKEASSATIVLCLTRSSYMLELVNTPLTENILIASLMDTLITPAVRNTAPNIRELGVKNLGLCCLLDVKLAIDNMYILGMCVSKGNASLKYIALQVIVDIFSVHGNTVVDGEGKVDSISLHKIFYKVLKNNGLPECQVIAAEGLCKLFLADVFTDDDLFETLVLSYFSPINSSNEALVQAFAFCIPVYCFSHPAHQQRMSRTAADILLRLCVLWDDLQSSVIPEVDREAMLKPNIIFQQLLFWTDPRNLVNQTGSTKKDTVQLTFLIDVLKIYAQIEKKEIKKMIITNINAIFLSSEQDYSTLKELLEYSDDIAENDNLDNVSKNALDKLRNNLNSLIEEINERSETQTKDENNTANDQYSSILGN
chain 3: SIFEKDLMAYFDENLNRNWRGREHWKVRNFKKANLVNKESDLLEETRTTIGDTTDKNTTDDKSMDTKKKHKQKKVLEIDFFKTDDSFEDKVFASKGRTKIDMPIKNRKNDTHYLLPDDFHFSTDRITRLFIKPGQKMSLFSHRKHT

From paper PMC11791182, “Molecular mechanism targeting condensin for chromosome condensation” (The EMBO Journal, 2024) come the findings set out here.

The variants in the assay derive from B1. The assay can be described thus: co-immunoprecipitation (anti-GFP-coupled beads), silver-stained SDS-PAGE band quantification; 25 mM HEPES pH 7.5, 500 mM NaCl, 10% glycerol, 1 mM DTT, 0.1% NP-40; 2.5 h incubation; parent: 1; read off a plot.
Take chain 1 L37E, chain 1 F38E, chain 1 I42E, chain 1 V43E, chain 1 L46E: the ratio to parent was about 0.84. For the variant chain 1 L37E, chain 1 F38E, the ratio to parent is about 0.37. Turning to chain 1 L46E, the ratio to parent is about 0.66. Consider chain 1 L37E, chain 1 F38E, chain 1 I42E, chain 1 V43E, for which the ratio to parent was about 0.54. Consider chain 1 I42E, chain 1 V43E, for which the ratio to parent is about 0.51.
